Measurements: the supplement of paper PMC11246515
± gives the standard deviation of the averaged measurements.

Experiment: total protein half-life in vivo (active degradation + dilution); higher = more stable protein
[1] = wild type E. coli NCM3722, growth: C-lim chemostat, doubling time 3 h
[2] = E. coli NCM3722 delta-hslV, growth: N-lim chemostat, doubling time 6 h
[3] = E. coli NCM3722 delta-lon, growth: N-lim chemostat, doubling time 6 h
[4] = E. coli NCM3722 delta-smpB, growth: N-lim chemostat, doubling time 6 h
[5] = wild type E. coli NCM3722, growth: C-lim chemostat, doubling time 6 h
[6] = wild type E. coli NCM3722, growth: C-lim chemostat, doubling time 12 h
[7] = wild type E. coli NCM3722, growth: N-lim chemostat, doubling time 6 h
[8] = wild type E. coli NCM3722, growth: N-lim chemostat, doubling time 12 h
[9] = wild type E. coli NCM3722, growth: P-lim chemostat, doubling time 6 h
[10] = wild type E. coli NCM3722, growth: P-lim chemostat, doubling time 12 h
[11] = E. coli NCM3722 delta-clpP delta-lon delta-hslV, growth: N-lim chemostat, doubling time 6 h
[12] = E. coli NCM3722 delta-clpP, growth: N-lim chemostat, doubling time 6 h

Row | Sequence | total protein half-life in vivo [1] [h] | total protein half-life in vivo [2] [h] | total protein half-life in vivo [3] [h] | total protein half-life in vivo [4] [h] | total protein half-life in vivo [5] [h] | total protein half-life in vivo [6] [h] | total protein half-life in vivo [7] [h] | total protein half-life in vivo [8] [h] | total protein half-life in vivo [9] [h] | total protein half-life in vivo [10] [h] | total protein half-life in vivo [11] [h] | total protein half-life in vivo [12] [h]
1 | MSDYQMFEVQVSQVEPLTEQVKRFTLVATDGKPLPAFTGGSHVIVQMSDGDNQYSNAYSLLSSPHDTSCYQIAVRLEENSRGGSRFLHQQVKVGDRLTISTPNNLFALIPSARKHLFIAGGIGITPFLSHMAELQHSDVDWQLHYCSRNPESCAFRDELVQHPQAEKVHLHHSSTGTRLELARLLADIEPGTHVYTCGPEALIEAVRSEAARLDIAADTLHFEQFAIEDKTGDAFTLVLARSGKEFVVPEEMTILQVIENNKAAKVECLCREGVCGTCETAILEGEADHRDQYFSDEERASQQSMLICCSRAKGKRLVLDL | 3.41 | – | – | – | – | – | – | – | – | – | – | –
2 | MSEALKILNNIRTLRAQARECTLETLEEMLEKLEVVVNERREEESAAAAEVEERTRKLQQYREMLIADGIDPNELLNSLAAVKSGTKAKRAQRPAKYSYVDENGETKTWTGQGRTPAVIKKAMDEQGKSLDDFLIKQ [P0ACF8] | 2.9 ± 0.29 | 6.19 ± 0.062 | 7.64 ± 0.48 | 5.87 ± 1.2 | 6.22 ± 0.29 | 9.37 ± 0.21 | 5.27 ± 0.45 | 11.6 ± 2.7 | 5.16 ± 0.77 | 11.7 ± 0.41 | – | –
3 | MSEDIFDAIIVGAGLAGSVAALVLAREGAQVLVIERGNSAGAKNVTGGRLYAHSLEHIIPGFADSAPVERLITHEKLAFMTEKSAMTMDYCNGDETSPSQRSYSVLRSKFDAWLMEQAEEAGAQLITGIRVDNLVQRDGKVVGVEADGDVIEAKTVILADGVNSILAEKLGMAKRVKPTDVAVGVKELIELPKSVIEDRFQLQGNQGAACLFAGSPTDGLMGGGFLYTNENTLSLGLVCGLHHLHDAKKSVPQMLEDFKQHPAVAPLIAGGKLVEYSAHVVPEAGINMLPELVGDGVLIAGDAAGMCMNLGFTIRGMDLAIAAGEAAAKTVLSAMKSDDFSKQKLAEYRQHLESGPLRDMRMYQKLPAFLDNPRMFSGYPELAVGVARDLFTIDGSAPELMRKKILRHGKKVGFINLIKDGMKGVTVL | – | – | – | – | – | 9.28 | – | – | – | – | – | –
4 | MSEISRQEFQRRRQALVEQMQPGSAALIFAAPEVTRSADSEYPYRQNSDFWYFTGFNEPEAVLVLIKSDDTHNHSVLFNRVRDLTAEIWFGRRLGQDAAPEKLGVDRALAFSEINQQLYQLLNGLDVVYHAQGEYAYADVIVNSALEKLRKGSRQNLTAPATMIDWRPVVHEMRLFKSPEEIAVLRRAGEITAMAHTRAMEKCRPGMFEYHLEGEIHHEFNRHGARYPSYNTIVGSGENGCILHYTENECEMRDGDLVLIDAGCEYKGYAGDITRTFPVNGKFTQAQREIYDIVLESLETSLRLYRPGTSILEVTGEVVRIMVSGLVKLGILKGDVDELIAQNAHRPFFMHGLSHWLGLDVHDVGVYGQDRSRILEPGMVLTVEPGLYIAPDAEVPEQYRGIGIRIEDDIVITETGNENLTASVVKKPEEIEALMVAARKQ | 3.12 ± 0.1 | 5.23 ± 0.15 | 6 ± 0.092 | 5.36 ± 0.3 | 6 ± 0.22 | 12.4 ± 1.5 | 5.53 ± 0.15 | 10.3 ± 0.72 | 5.95 ± 0.51 | 12.8 ± 0.42 | 5.813 ± 0.036 | 6.45 ± 0.88
5 | MSEIVVSKFGGTSVADFDAMNRSADIVLSDANVRLVVLSASAGITNLLVALAEGLEPGERFEKLDAIRNIQFAILERLRYPNVIREEIERLLENITVLAEAAALATSPALTDELVSHGELMSTLLFVEILRERDVQAQWFDVRKVMRTNDRFGRAEPDIAALAELAALQLLPRLNEGLVITQGFIGSENKGRTTTLGRGGSDYTAALLAEALHASRVDIWTDVPGIYTTDPRVVSAAKRIDEIAFAEAAEMATFGAKVLHPATLLPAVRSDIPVFVGSSKDPRAGGTLVCNKTENPPLFRALALRRNQTLLTLHSLNMLHSRGFLAEVFGILARHNISVDLITTSEVSVALTLDTTGSTSTGDTLLTQSLLMELSALCRVEVEEGLALVALIGNDLSKACGVGKEVFGVLEPFNIRMICYGASSHNLCFLVPGEDAEQVVQKLHSNLFE | 3.142 ± 0.0098 | 2.67 ± 0.073 | 3.15 ± 0.3 | 2.54 ± 0.31 | 4.67 ± 0.34 | 8.44 ± 2.4 | 2.9 ± 0.23 | 4.25 ± 0.55 | 5.46 ± 0.4 | 10.1 ± 1.1 | 4.06 ± 0.69 | 2.98 ± 0.29
6 | MSEKHPGPLVVEGKLTDAERMKHESNYLRGTIAEDLNDGLTGGFKGDNFLLIRFHGMYQQDDRDIRAERAEQKLEPRHAMLLRCRLPGGVITTKQWQAIDKFAGENTIYGSIRLTNRQTFQFHGILKKNVKPVHQMLHSVGLDALATANDMNRNVLCTSNPYESQLHAEAYEWAKKISEHLLPRTRAYAEIWLDQEKVATTDEEPILGQTYLPRKFKTTVVIPPQNDIDLHANDMNFVAIAENGKLVGFNLLVGGGLSIEHGNKKTYARTASEFGYLPLEHTLAVAEAVVTTQRDWGNRTDRKNAKTKYTLERVGVETFKAEVERRAGIKFEPIRPYEFTGRGDRIGWVKGIDDNWHLTLFIENGRILDYPARPLKTGLLEIAKIHKGDFRITANQNLIIAGVPESEKAKIEKIAKESGLMNAVTPQRENSMACVSFPTCPLAMAEAERFLPSFIDNIDNLMAKHGVSDEHIVMRVTGCPNGCGRAMLAEVGLVGKAPGRYNLHLGGNRIGTRIPRMYKENITEPEILASLDELIGRWAKEREAGEGFGDFTVRAGIIRPVLDPARDLWD | 2.55 ± 0.13 | 2.52 ± 0.056 | 3.07 ± 0.14 | 2.55 ± 0.1 | 4.1634 ± 0.0008 | 5.98 ± 0.51 | 2.82 ± 0.28 | 3.73 ± 0.062 | 3.91 ± 0.24 | 6.82 ± 0.1 | 4.99 ± 0.69 | 3.79 ± 0.29
7 | MSEKLQVVTLLGSLRKGSFNGMVARTLPKIAPASMEVNALPSIADIPLYDADVQQEEGFPATVEALAEQIRQADGVVIVTPEYNYSVPGGLKNAIDWLSRLPDQPLAGKPVLIQTSSMGVIGGARCQYHLRQILVFLDAMVMNKPEFMGGVIQNKVDPQTGEVIDQGTLDHLTGQLTAFGEFIQRVKI [P0AGE6] | 3.116 ± 0.014 | 5.61 ± 0.31 | 5.83 ± 0.28 | 5.24 ± 0.12 | 5.74 ± 0.21 | 11.1 ± 0.21 | 5.27 ± 0.43 | 9.39 ± 0.36 | 5.31 ± 0.077 | 12.1 ± 0.48 | 6.73 ± 1.1 | 5.46 ± 0.56
